For orientation: EC50 means the concentration at which the effect is half-maximal. Low values mean an effect from little substance, high ones a need for much substance.

2 molecules from patent publication US20230151111A1 (AKESO BIOPHARMA, published 2023) can be followed below.

In assay [1] the target is T1, PD-1-mFc (human, UniProt Q15116 25-170, limits assumed).
T1 construct: also called human PD-1-mFc
Put plainly: ELISA, PD-1-mFc coated. As to the method:
A microplate was coated with PD-1-mFc at 0.5 μg/mL and incubated at 4° C. overnight. Then the microplate coated with antigens was washed once with PBST, and then blocked with a PBS solution containing 1% BSA as blocking solution at 37° C. for 2 h. After blocking, the microplate was washed 3 times with PBST. The microplate containing the test antibodies was incubated at 37° C. for 30 min, and then washed 3 times with PBST. […] After incubation, the plate was washed 4 times with PBST, TMB (Neogen, 308177) was added in the dark for chromogenesis for 5 min, and then a stop solution was added to terminate chromogenic reaction. The microplate was put into a microplate reader immediately, and the OD value of each well in the microplate was read at 450 nm. The data were analyzed and processed by SoftMax Pro 6.2.1,

Assay [2] addresses T2, CD73 on cell membrane surface (MDA-MB-231, U87-MG) (human, UniProt P21589 27-549).
T2 construct: whole, on cells; also called NT5E
T2 sequence (looked up): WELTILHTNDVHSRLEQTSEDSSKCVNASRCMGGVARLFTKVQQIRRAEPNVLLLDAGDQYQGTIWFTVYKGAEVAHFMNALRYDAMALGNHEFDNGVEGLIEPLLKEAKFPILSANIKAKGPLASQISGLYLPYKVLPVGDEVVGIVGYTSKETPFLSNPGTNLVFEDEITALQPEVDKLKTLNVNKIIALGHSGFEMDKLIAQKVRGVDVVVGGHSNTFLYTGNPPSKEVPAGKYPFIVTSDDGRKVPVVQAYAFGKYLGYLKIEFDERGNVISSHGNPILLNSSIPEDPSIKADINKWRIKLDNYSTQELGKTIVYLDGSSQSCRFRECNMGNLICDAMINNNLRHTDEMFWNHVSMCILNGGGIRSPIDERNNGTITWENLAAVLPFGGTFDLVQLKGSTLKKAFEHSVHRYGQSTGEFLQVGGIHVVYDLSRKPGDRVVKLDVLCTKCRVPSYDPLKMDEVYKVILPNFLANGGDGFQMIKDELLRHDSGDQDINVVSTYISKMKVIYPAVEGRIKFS
Put plainly: flow cytometry, MDA-MB-231 cells; antibody 1.23 nM. The protocol: (§1) MDA-MB-231 cells in logarithmic phase were digested with conventional trypsin and transferred to a 1.5 mL centrifuge tube at 3×10⁵ cells/tube. 500 μL of PBSA was added, and the mixture was centrifuged at 5600 rpm for 5 min to remove the supernatant. […] The system was mixed gently and uniformly, and then was incubated on ice for 1 h. Then 500 μL of PBSA was added, and the mixture was centrifuged at 5600 rpm for 5 min to remove the supernatant. […] 500 μL of PBSA was added, and the mixture was centrifuged at 5600 rpm for 5 min to remove the supernatant. At last, 200 μL of PBSA was added to resuspend cell precipitates, and the mixture was transferred to a flow tube for FACSCalibur detection.

Assay [3] concerns the target T3, PD-1 on 293T-PD1 cell surface (human, UniProt Q15116 25-288).
T3 construct: whole, on cells
The assay can be described thus: flow cytometry, 293T-PD1 cells; antibody 3.70 nM. The protocol: (§2) 500 μL of PBSA was added, and the mixture was centrifuged at 5600 rpm for 5 min to remove the supernatant. […] The system was mixed gently and uniformly, and then was incubated on ice for 1 h. Then 500 μL of PBSA was added, and the mixture was centrifuged at 5600 rpm for 5 min to remove the supernatant. […] 500 μL of PBSA was added, and the mixture was centrifuged at 5600 rpm for 5 min to remove the supernatant. At last, 200 μL of PBSA was added to resuspend cell precipitates, and the mixture was transferred to a flow tube for FACSCalibur detection.
(In general: A flow cytometer gives signals particle by particle.)

The target of assay [4] is T2, CD73 on cell membrane surface …. The assay can be described thus: flow cytometry, MDA-MB-231 cells; antibody 11.11 nM. As to the method: as §1
The target is the same in assay [5]. The assay can be described thus: flow cytometry, MDA-MB-231 cells; antibody 0.05 nM. As to the method:
as §1

Assay [6] concerns the target T3, PD-1 on 293T-PD1 cell surface. The assay can be described thus: flow cytometry, 293T-PD1 cells; antibody 0.14 nM. The protocol:
as §2

For assay [7], the target named is T2, CD73 on cell membrane surface …. Put plainly: flow cytometry, MDA-MB-231 cells; antibody 33.33 nM. The protocol:
as §1

The target in assay [8] is T3, PD-1 on 293T-PD1 cell surface. Put plainly: flow cytometry, 293T-PD1 cells; antibody 0.41 nM. The protocol:
as §2

The target in assay [9] is T4, human PD-1-mFc-biotin (human, UniProt Q15116 25-170, limits assumed, biotin label, site not stated). Put plainly: competitive ELISA, blocking of PD-1-mFc-biotin binding to coated PD-L1-mFc. The protocol: (§3) After incubation, the microplate was blocked with a PBS solution containing 1% BSA at 37° C. for 2 h. After blocking, the plate was washed three times and dried. The antibody was serially diluted to 7 concentrations in a gradient ratio of 1:3 on a dilution plate with 10 μg/mL as the starting concentration, and a blank control was set. […] Then the mixture after reaction was added to the coated microplate, and the microplate was incubated for at 37° C. for 30 min. After incubation, the plate was washed three times with PBST and dried. SA-HRP (KPL, 14-30-00) working solution was added, and the plate was incubated at 37° C. for 30 min. After incubation, the plate was washed four times and patted dry. Then TMB (Neogen, 308177) was added in the dark for chromogenesis for 5 min, and a stop solution was added to terminate chromogenic reaction. Then the microplate was put into a microplate reader immediately, and the OD value of each well in the microplate was read at 450 nm. The data were analyzed and processed by SoftMax Pro 6.2.1.
For orientation: In an ELISA, binding on a coated surface is turned into a signal by an enzyme label.

The target of assay [10] is T2, CD73 on cell membrane surface …. The assay can be described thus: flow cytometry, MDA-MB-231 cells; antibody 0.14 nM. As to the method: as §1
Assay [11] concerns the target T3, PD-1 on 293T-PD1 cell surface. The assay can be described thus: flow cytometry, 293T-PD1 cells; antibody 33.33 nM. As to the method:
as §2

In assay [12] the target is T4, human PD-1-mFc-biotin. The assay can be described thus: competitive ELISA, competitor coated PD-L1-mFc; antibody 5 ug/mL. As to the method:
as §3

T3 sequence (Q15116 25-288): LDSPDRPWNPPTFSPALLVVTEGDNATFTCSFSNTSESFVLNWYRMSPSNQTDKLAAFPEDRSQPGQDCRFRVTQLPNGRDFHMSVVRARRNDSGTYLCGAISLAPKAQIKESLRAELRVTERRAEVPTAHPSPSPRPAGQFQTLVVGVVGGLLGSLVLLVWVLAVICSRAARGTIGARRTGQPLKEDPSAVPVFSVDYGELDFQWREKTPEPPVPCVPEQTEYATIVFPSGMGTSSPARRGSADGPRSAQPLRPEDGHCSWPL
T4 sequence (Q15116 other isoform, or with tags, fused parts or gaps limits assumed): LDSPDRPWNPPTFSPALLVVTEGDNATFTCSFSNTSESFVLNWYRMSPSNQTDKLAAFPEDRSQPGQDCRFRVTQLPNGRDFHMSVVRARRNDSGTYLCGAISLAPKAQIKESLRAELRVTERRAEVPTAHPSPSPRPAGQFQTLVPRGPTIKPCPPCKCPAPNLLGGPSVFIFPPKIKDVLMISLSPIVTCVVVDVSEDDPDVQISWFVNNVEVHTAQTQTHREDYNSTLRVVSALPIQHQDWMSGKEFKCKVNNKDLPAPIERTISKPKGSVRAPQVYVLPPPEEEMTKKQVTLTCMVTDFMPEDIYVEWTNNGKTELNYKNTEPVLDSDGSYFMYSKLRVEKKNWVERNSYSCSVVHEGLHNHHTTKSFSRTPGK
T1 sequence (Q15116 other isoform, or with tags, fused parts or gaps limits assumed): as above

B1: P1D7V01 (bispecific antibody, human IgG1, kappa)
heavy: not shown
light: DIQMTQSPSSMSASVGDRVTFTCRASQDINTYLSWFQQKPGKSPKTLIYRANRLVSGVPSRFSGSGSGQDYTLTISSLQPEDMATYYCLQYDEFPLTFGAGTKLELKRTVAAPSVFIFPPSDEQLKSGTASVVCLLNNFYPREAKVQWKVDNALQSGNSQESVTEQDSKDSTYSLSSTLTLSKADYEKHKVYACEVTHQGLSSPVTKSFNRGEC
notes: Morrison form IgG-scFv
As for B1, the concentration giving a half-maximal response (EC50) in assay [1] turned out to be 0.078 nM; in assay [9], 1.11 nM. Further, the FACS signal in assay [2] was 272; in assay [3], 531; in [4] it was 561; in [5], 23.4; in assay [6] it was 58.6; in [7], 526. In addition, the FACS signal in [8] turned out to be 151; in assay [10], 38; in assay [11] it was 479.

B2: P1D7V03 (bispecific antibody, human IgG1, kappa)
heavy: not shown
light: B1 light
notes: Morrison form IgG-scFv
As for B2, the EC50 came out at 0.075 nM in assay [1] and 1.15 nM in assay [9]. Also, the FACS signal in assay [2] stood at 233; in [3], 385; in [4] it was 525; in [5], 17; in assay [6] it was 49.2; in [7], 576. For the same molecule, the figures for the FACS signal in assay [8], in [10] and in assay [11] were 118, 44 and 808, respectively. Further, in assay [12], the OD450 came out at 0.048 OD.
